The target of this experiment is CBD-NpuDnaE_(NΔ16). The experiment in a line: SPR.

This is an account of results in doi:10.1101/215566.

pKd: −log10 of the molar value.

Usually pKd stands for the Kd on a negative log10 scale, so that one unit is a factor of ten. Low values mean a large Kd, high ones a small Kd. Substance NpuDnaEC16-eGFP (domain or fragment) gave a pKd of 8.80.
